B1: FVM02P (antibody, V domains shown)
VH: EVQLVESGGGLVQPGGSLRLSCAASGFTGFTFSDYAFYWVRQAPGKGLEWVGFIRGKAYGGTADYAASVKGRFTISRDNSKNTAYLQMSSLKTEDSAVYYCTSQGVTVATPYHWGQGVLVTVSS
VL: DIVLTQSPLSLPVTPGEPASISCRSSQSLLHSGGKTYLYWYLQKPGQSPQLLIHEVSNRASGVPDRFSGSGSGTDFTLKISRVEAEDVGVYYCMQGIQLPLTFGGGTKVEIKR
B2: FVM03 (antibody, V domains shown)
VH: QVQLQESGPVLVKPSETLSLTCAVSGYSISSAYAWSWIRQPPGKGLEWVGYVGSSSDYNPSLKSRVTISRDTSKNRIFLNLRSLTAADTAVYYCARDRANNSMDVWGRGVLVTVSS
VL: EIVLTQSPDSLGVSLGERVTINCKSSQSLLYSSNNKNYLAWYQQKPGQAPKLLIYWASTRESGVPNRFSGSGSGTDFTLTISGLQAEDVAVYYCQQYYSTPLTFGQGTKVEIKR
B3: FVM34 (antibody, V domains shown)
VH: EVQLVESGAEVKRPGESLTISCKTSGYSFTDSWVSWVRQMPGKGLEWMGSIYPGDSETKYNPSFQGHVTISADKSVTTTYLKWSSLKASDTATYYCVKGSETWGQGVLVTVSS
VL: QPVLTQPASLSASPGASASLTCTFSGGINVAGYYIHWYQQKPGSPPRYLLRYKSDSDKHQGSGVPSRFSGSKDASANTGILRISGLQSEDEADYYCAIGHSSGWVFGGGTRLTVL
B4: FVM35 (antibody, V domains shown)
VH: EVQLVQSGAEVKRPGESLTISCKTSGYSFTSYWITWVRQMPGKGLEWLGSIYPGDSETKYNPSFQGHVTISADKSVTTTYLKWSSLKASDTATYYCVKGSETWGQGVLVTVSS
VL: QPVLTQPASLSASPGASASLTCTFSGGINVAGYNILWYQQKAGSPPRYLLRYKSDSTKDQGSGVPSRFSGSKDASANTGILRISGLQSEDEADYYCAIGHSSGWIFGGGTRLTVL
B5: FVM37 (antibody, V domains shown)
VH: QVQLVQSGAEVKRPGESLKISCKTSGYRFTSSWISWVRQMPGKGLEWLGSIYPGDSETKYNPSFQGHVTISADKSVTTTYLKWSSLKASDTATYYCVKGSETWGQGVLVTVSS
VL: SSELTQPASLSASPGASASLTCTFSGGINVAGYNILWYQQKAGSPPRYLLRYKSDSTKDQGSGVPSRFSGSKDASANTGILRISGLQSEDEADYYCAIGHSSGWIFGGGTRLTVL
B6: FVM38 (antibody, V domains shown)
VH: QVQLVQSGAEVKRPGESLTISCKTSGYSFTDSWIGWVRQMPGKGLEWMASIYPDDSETKYNPSFQGHVTISADKSVTTTYLKWSSLKASDTATYYCVKGSETWGQGVLVTVSS
VL: QPVLTQPASLSASPGASASLTCTFSGGINVAGYNILWYQQKAGSPPRYLLRYKSDSTKDQGSGVPSRFSGSKDASANTGILRISGLQSEDEADYYCAIGHSSGWIFGGGTRLTVL
B7: FVM40 (antibody, V domains shown)
VH: EVQLVQSGAEVKRPGESLTISCKTSGYSFTDSWISWVRQMPGKGLEWMGSIYPGDSETKYNPSFQGHVTISADKSVTTTYLKWSSLKASDTATYYCVKGSETWGQGVLVTVSS
VL: QPMLTQPASLSASPGASASLTCTFSGGINVAGYNILWYQQKAGSPPRYLLRYKSDSTKDQGSGVPSRFSGSKDASANTGILRISGLQSEDEADYYCAIGHSSGWIFGGGTRLTVL
B8: FVM41 (antibody, V domains shown)
VH: EVQLVQSGAEVKRPGESLKISCKTSGYSFTDTWISWVRQMPGKGLEWMGSIYPGDSETKYNPSFQGHVTISADKSVTTTYLKWSSLKASDTATYYCVKGSETWGQGVLVTVSS
VL: ETVVTQPASLSASPGASASLTCTFSGGINVAGYNILWYQQKAGSPPRYLLRYKSDSTKDQGSGVPSRFSGSKDASANTGILRISGLQSEDEADYYCAIGHSSGVLFGGGTRLTVL
B9: FVM12 (antibody, V domains shown)
VH: EVQLVQSGAEVKRPGESLTISCKTSEYSFTGSWISWVRQMPGKGLEWMGSIYPGDSDTRYSPSFQGQVTISADKSVTTTYLKWSSLKASDTATYYCVKGSETWGQGVLVTVSS
VL: QPVLTQPASLSASLGASASLTCTFSGGINVAGYNILWYQQKPGSPPRFLLRYKSDSDNVQGSGVPSHFSGSKDASTNTGILRISGLQSEDEADYYCAIGHSSGWVFGGGTRLTVL
B10: FVM13 (antibody, V domains shown)
VH: EVQLVQSGAEVKRPGESLKISCKTSGYTFTSSWISWVRQMPGKGLEWLGSIYPGDSDTRYNPSFQGHVTISADTSIITTHLQWSSLKASDTATYYCVKGSETWGQGVLVTVSS
VL: KPMLTQPTSLSASPGASASLTCTFSGGINVAGYNILWYQQKAGSPPRYLLRYKSDSTKDQGSGVPSRFSGSKDASANTGILRISGLQSEDEADYYCAIGHSSGWIFGGGTRLTVL
B11: FVM18 (antibody, V domains shown)
VH: QVQLVQSGAEVKRPGESLKISCKTSGYSFTNIWISWVRQMPGKGLEWLGSIYPGDSETKYNPSFQGHVTISADKSVTTTYLKWSSLKASDTATYYCVKGSETWGQGVLVTVSS
VL: NFMLTQPASLSASPGASASLTCTFSGGINVAGYHILWYQQKPGSPPRYLLRYKSDSEKDQGSGVPSRFSGSKDASANRGILRISGLQSEDEADYYCAIGHSSSGWVFGGGTRLTVL
B12: FVM19 (antibody, V domains shown)
VH: QVQLVQSGAEVKRPGESLTISCKTSGYSFTDSWVAWVRQMPGKGLEWLGSIYPGDSDTKYNPSFQGHVTISADKSVTTTYLKWSSLKASDTATYYCVKGSETWGQGVLVTVSS
VL: KPMLTQPASLSASPGASASLTCTFSGGINVAGYHIFWYQQKPGSPPRYLLRYKSDSDKGQGSGVPSRFSGSKDASANTGILRISGLQSEDEADYYCAIGHSSGLLFGGGTRLTVL
B13: FVM21 (antibody, V domains shown)
VH: EVQLVESGAEVKRPGESLTISCKTSGYSFTDSWVAWVRQMPGKGLEWLGSIYPGDSETKYNPSFQGHVTISADKSISTTYLQWSSLRASDTATYYCVKGADDWGPGLLVTVSS
VL: SSELTQPASLSASPGASASLTCTFSGGINVAGYNILWYQQKAGSPPRYLLRYKSDSDKGQGSGVPSRFSGSKDASANTGILRISGLQSEDEADYYCAIGHSSGWIFGGGTRLTVL
B14: FVM23 (antibody, V domains shown)
VH: QVQLVQSGAEVKRPGESLTISCKTSGYSFTGSWISWVRQMPGKGLEWMGSIYPGDSDTTYNPSFQGHVTISADKSISTAYLQWTSLKASDTATYYCVKGSETWGQGVLVTVSS
VL: SYELTQPASLSASPGASASLTCTFSGGINVAGYNILWYQQKAGSPPRYLLRYKSDSTKDQGSGVPSRFSGSKDASANTGILRISGLQSEDEADYYCAIGHSSGLIFGAGTRLTVL
B15: FVM24 (antibody, V domains shown)
VH: EVQLVQSGAEVKRPGESLKISCKTSGYSFTDSWVAWVRQMPGKGLEWMGSIYPGDFQTRYNPSFQGHVTLSADKSISTTYLQWSSLKASDTATYYCVKGSETWGPGVLVTVSS
VL: SSGLTQPASLSASPGASASLTCTFSGGINVAGYNILWYQQKAGSPPRYLLRYKSDSTKDQGSGVPSRFSGSKDVSANTGILRISGLQSDDEADYYCAIGHSSGWIFGGGTRLTVL
B16: FVM25 (antibody, V domains shown)
VH: EVQLVHSGAEVKRPGESLTISCKTSGYTFTDYWIAWVRQMPGKGLEWMASIYPDDSDTRYNPSFQGHVTISADKSISTTYLQWSSLRASDTATYYCVKGSETWGQGVLVTVSS
VL: QLVLTQPASLSASPGTSASLTCTFSGGINVAGYNILWYQQKPGSPPRFLLRYKSDSDNVQGSGVPSHFSGSKDASTNTGILRISGLQSEDEADYYCAIGHSSGWVFGGGTRLTVL
B17: FVM28 (antibody, V domains shown)
VH: EVQLVQSGAEVKRPGESLKISCQTSGYRFTSSWISWVRQMPGKGLEWMGAIDPSDSETRYSPSFQGQVTISADKSISTAYLKWSSLKASDTATYYCVKGSETWGQGVLVTVSS
VL: QAALTQPASLSASPGASASLTCTFSGGINVAGYHILWYQQKPGSPPRYLLRYKSDSEKDQGSGVPSRFSGSKDASANRGILRISGLQSEDEADYYCAIGHSSSGWVFGGGTRLTVL
B18: FVM32 (antibody, V domains shown)
VH: QVQLVQSGAEVKRPGESLRISCKTSGYSFTDSWVAWVRQMPGKGLEWLGSIYPGDSDTRYSPSFQGQVTISADKSITTAYLKWSSLKASDTATYYCVKGSETWGQGVLVTVSS
VL: QPVLTQPASLSASPGASASLTCTFNGGITVPGYDILWYQQKSGSPPRYLLRYKSDSTKDQGSGVPSRFSGSKDASTNTGILRISGLQSEDEADYYCAIGHSSGWIFGGGTRLTVL

Key:
MARV GPddmuc [1] = biological target: T1, MARV GPddmuc (Marburg virus (MARV), UniProt P35253 19-648); test: ELISA
EBOV GPddmuc [2] = biological target: T2, EBOV GPddmuc (Ebola virus (EBOV), UniProt Q05320 33-650); test: ELISA
SUDV GPddmuc [3] = biological target: T3, SUDV GPddmuc (Sudan virus (SUDV), UniProt Q66814 33-650); test: ELISA
EBOV GPddmuc [4] = biological target: T2, EBOV GPddmuc; test: native ELISA
SUDV GPddmuc [5] = biological target: T3, SUDV GPddmuc; test: native ELISA
MARV GPddmuc [6] = biological target: T1, MARV GPddmuc; test: native ELISA

Row | Binder | EC50 (MARV GPddmuc [1]) | EC50 (EBOV GPddmuc [2]) | EC50 (SUDV GPddmuc [3]) | binding result (EBOV GPddmuc [4]) | binding result (SUDV GPddmuc [5]) | binding result (MARV GPddmuc [6])
1 | B1 | > 10000 pM | 127 pM | 158 pM | – | – | –
2 | B2 | 306 pM | – | – | no binding | no binding | –
3 | B3 | – | 27 pM | 27 pM | – | – | no binding
4 | B4 | – | 33 pM | 33 pM | – | – | no binding
5 | B5 | – | 47 pM | 33 pM | – | – | no binding
6 | B6 | – | 60 pM | 53 pM | – | – | no binding
7 | B7 | – | 40 pM | 33 pM | – | – | no binding
8 | B8 | – | 47 pM | 53 pM | – | – | no binding
9 | B9 | – | 91 pM | 81 pM | – | – | no binding
10 | B10 | – | 62 pM | 51 pM | – | – | no binding
11 | B11 | – | 101 pM | 108 pM | – | – | no binding
12 | B12 | – | 120 pM | 267 pM | – | – | no binding
13 | B13 | – | 67 pM | 67 pM | – | – | no binding
14 | B14 | – | 87 pM | 80 pM | – | – | no binding
15 | B15 | – | 153 pM | 120 pM | – | – | no binding
16 | B16 | – | 120 pM | 180 pM | – | – | no binding
17 | B17 | – | 47 pM | 47 pM | – | – | no binding
18 | B18 | – | 73 pM | 127 pM | – | – | no binding
